The target of one experiment is T1, C10-STAU1 (UniProt O95793 1-577).
T1 construct: also called wild type STAU1; source: HepG2, transfected, in cells; not shown: C10 tag (tripartite NanoLuc), N-terminal, kept
T1 sequence (looked up): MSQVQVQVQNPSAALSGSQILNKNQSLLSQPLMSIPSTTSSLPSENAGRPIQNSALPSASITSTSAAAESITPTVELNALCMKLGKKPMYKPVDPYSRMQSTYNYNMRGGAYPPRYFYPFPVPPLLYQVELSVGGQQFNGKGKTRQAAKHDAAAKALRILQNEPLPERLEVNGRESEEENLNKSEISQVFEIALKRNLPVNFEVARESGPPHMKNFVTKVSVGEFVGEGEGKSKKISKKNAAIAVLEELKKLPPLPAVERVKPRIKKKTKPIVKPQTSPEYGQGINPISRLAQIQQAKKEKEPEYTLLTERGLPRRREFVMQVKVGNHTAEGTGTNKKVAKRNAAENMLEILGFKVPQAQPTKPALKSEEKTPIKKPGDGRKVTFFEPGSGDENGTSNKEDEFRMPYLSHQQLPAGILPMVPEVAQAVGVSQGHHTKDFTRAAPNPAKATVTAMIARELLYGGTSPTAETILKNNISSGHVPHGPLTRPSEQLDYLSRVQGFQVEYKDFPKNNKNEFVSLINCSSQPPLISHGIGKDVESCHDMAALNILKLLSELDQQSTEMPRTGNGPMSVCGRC
As to the kind of experiment: split reporter (BiFC, NanoBiT); tripartite Nanoluc luciferase: C10-tagged and N8-tagged proteins co-transfected with a plasmid expressing Nano1-7 into HepG2 cells; luciferase activity measured 48 h post-transfection. The note with it: partners not purified.

The target of the next experiment is T2, C10-DDB1 (UniProt Q16531 1-1140).
T2 construct: also called wild type DDB1; source: HepG2, transfected, in cells; not shown: C10 tag (tripartite NanoLuc), N-terminal, kept
T2 sequence (Q16531 whole entry): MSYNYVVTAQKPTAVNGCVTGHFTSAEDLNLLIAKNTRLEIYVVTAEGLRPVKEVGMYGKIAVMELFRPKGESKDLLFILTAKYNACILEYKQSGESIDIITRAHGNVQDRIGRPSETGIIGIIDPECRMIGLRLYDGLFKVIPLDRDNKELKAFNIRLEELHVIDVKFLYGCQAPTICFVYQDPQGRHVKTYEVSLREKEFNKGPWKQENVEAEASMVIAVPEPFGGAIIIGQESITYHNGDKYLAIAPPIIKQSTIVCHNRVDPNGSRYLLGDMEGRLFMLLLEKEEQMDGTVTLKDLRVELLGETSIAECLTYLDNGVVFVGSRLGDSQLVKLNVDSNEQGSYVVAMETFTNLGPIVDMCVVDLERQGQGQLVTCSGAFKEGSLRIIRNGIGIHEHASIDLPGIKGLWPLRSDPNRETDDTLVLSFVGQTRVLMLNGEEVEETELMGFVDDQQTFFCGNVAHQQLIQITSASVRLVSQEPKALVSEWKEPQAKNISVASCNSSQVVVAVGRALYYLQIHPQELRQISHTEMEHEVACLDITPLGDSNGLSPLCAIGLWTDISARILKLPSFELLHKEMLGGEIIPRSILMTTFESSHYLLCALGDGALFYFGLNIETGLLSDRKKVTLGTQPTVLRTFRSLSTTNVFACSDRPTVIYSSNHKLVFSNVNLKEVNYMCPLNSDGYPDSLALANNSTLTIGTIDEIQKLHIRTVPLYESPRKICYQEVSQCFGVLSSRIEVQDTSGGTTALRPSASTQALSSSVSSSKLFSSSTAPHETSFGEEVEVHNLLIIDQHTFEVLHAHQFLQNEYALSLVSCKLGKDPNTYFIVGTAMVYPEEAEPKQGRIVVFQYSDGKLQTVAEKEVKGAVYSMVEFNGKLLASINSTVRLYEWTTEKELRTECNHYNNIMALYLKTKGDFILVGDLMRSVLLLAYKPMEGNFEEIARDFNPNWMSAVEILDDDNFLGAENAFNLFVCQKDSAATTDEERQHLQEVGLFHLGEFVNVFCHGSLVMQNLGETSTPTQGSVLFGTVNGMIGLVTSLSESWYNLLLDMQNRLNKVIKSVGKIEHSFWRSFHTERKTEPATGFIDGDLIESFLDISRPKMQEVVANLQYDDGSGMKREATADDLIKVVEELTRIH
The experiment is described as above. The note with it: partners not purified.

This note sets out measurements from publication PMC9156947, “Identification of STAU1 as a regulator of HBV replication by TurboID-based proximity labeling” (iScience, 2022).

B1: N8-HBx (natural protein)
chain: MAARLCCQLDPARDVLCLRPVGAESRGRPFSGSLGTLSSPSPSAVPTDHGAHLSLRGLPVCAFSSAGPCALRFTSARRMETTVNAHQILPKVLHKRTLGLSAMSTTDLEAYFKDCLFKDWEELGEEIRLKVFVLGGCRHKLVCAPAPCNFFTSA
notes: also called X protein; wild type HBx; source: HepG2, transfected, in cells; not shown: N8 tag (tripartite NanoLuc), N-terminal, kept
B1: the “fold luminescence over the controls” value with C10-STAU1 is 28 fold; with C10-DDB1 it was approximately 200 fold.

B2: N8-TAF10 (natural protein)
chain: not shown
notes: source: transfected cells (tripartite NanoLuc system), in cells
As to B2, in the experiment with C10-STAU1, the “fold luminescence over the control” value is more than 20 fold.
